# Laboratory results: IntAct's records for PubMed 32453716
# B1: TOG array regulator of axonemal microtubules protein 1 (Homo sapiens), Q9Y4F4 (parent)
# chain: MAAAPSALLLLPPFPVLSTYRLQSRSRPSAPETDDSRVGGIMRGEKNYYFRGAAGDHGSCPTTTSPLASALLMPSEAVSSSWSESGGGLSGGDEEDTRLLQLLRTARDPSEAFQALQAALPRRGGRLGFPRRKEALYRALGRVLVEGGSDEKRLCLQLLSDVLRGQGEAGQLEEAFSLALLPQLVVSLREENPALRKDALQILHICLKRSPGEVLRTLIQQGLESTDARLRASTALLLPILLTTEDLLLGLDLTEVIISLARKLGDQETEEESETAFSALQQIGERLGQDRFQSYISRLPSALRRHYNRRLESQFGSQVPYYLELEASGFPEDPLPCAVTLSNSNLKFGIIPQELHSRLLDQEDYKNRTQAVEELKQVLGKFNPSSTPHSSLVGFISLLYNLLDDSNFKVVHGTLEVLHLLVIRLGEQVQQFLGPVIAASVKVLADNKLVIKQEYMKIFLKLMKEVGPQQVLCLLLEHLKHKHSRVREEVVNICICSLLTYPSEDFDLPKLSFDLAPALVDSKRRVRQAALEAFAVLASSMGSGKTSILFKAVDTVELQDNGDGVMNAVQARLARKTLPRLTEQGFVEYAVLMPSSAGGRSNHLAHGADTDWLLAGNRTQSAHCHCGDHVRDSMHIYGSYSPTICTRRVLSAGKGKNKLPWENEQPGIMGENQTSTSKDIEQFSTYDFIPSAKLKLSQGMPVNDDLCFSRKRVSRNLFQNSRDFNPDCLPLCAAGTTGTHQTNLSGKCAQLGFSQICGKTGSVGSDLQFLGTTSSHQEKVYASLNFGSKTQQTFGSQTECTSSNGQNPSPGAYILPSYPVSSPRTSPKHTSPLIISPKKSQDNSVNFSNSWPLKSFEGLSKPSPQKKLVSQKSSDPTGRNHGENSQEKPPVQLTPALVRSPSSRRGLNGTKPVPPIPRGISLLPDKADLSTVGHKKKEPDDIWKCEKDSLPIDLSELNFKDKDLDQEEMHSSLRSLRNSAAKKRAKLSGSTSDLESPDSAMKLDLTMDSPSLSSSPNINSYSESGVYSQESLTSSLSTTPQGKRIMSDIFPTFGSKPCPTRLSSAKKKISHIAEQSPSAGSSSNPQQISSFDFTTTKALSEDSVVVVGKGVFGSLSSAPATCSQSVISSVENGDTFSIKQSIEPPSGIYGRSVQQNISSYLDVENEKDAKVSISKSTYNKMRQKRKEEKELFHNKDCEKKEKNSWERMRHTGTEKMASESETPTGAISQYKERMPSVTHSPEIMDLSELRPFSKPEIALTEALRLLADEDWEKKIEGLNFIRCLAAFHSEILNTKLHETNFAVVQEVKNLRSGVSRAAVVCLSDLFTYLKKSMDQELDTTVKVLLHKAGESNTFIREDVDKALRAMVNNVTPARAVVSLINGGQRYYGRKMLFFMMCHPNFEKMLEKYVPSKDLPYIKDSVRNLQQKGLGEIPLDTPSAKGRRSHTGSVGNTRSSSVSRDAFNSAERAVTEVREVTRKSVPRNSLESAEYLKLITGLLNAKDFRDRINGIKQLLSDTENNQDLVVGNIVKIFDAFKSRLHDSNSKVNLVALETMHKMIPLLRDHLSPIINMLIPAIVDNNLNSKNPGIYAAATNVVQALSQHVDNYLLLQPFCTKAQFLNGKAKQDMTEKLADIVTELYQRKPHATEQKVLVVLWHLLGNMTNSGSLPGAGGNIRTATAKLSKALFAQMGQNLLNQAASQPPHIKKSLEELLDMTILNEL
# partner: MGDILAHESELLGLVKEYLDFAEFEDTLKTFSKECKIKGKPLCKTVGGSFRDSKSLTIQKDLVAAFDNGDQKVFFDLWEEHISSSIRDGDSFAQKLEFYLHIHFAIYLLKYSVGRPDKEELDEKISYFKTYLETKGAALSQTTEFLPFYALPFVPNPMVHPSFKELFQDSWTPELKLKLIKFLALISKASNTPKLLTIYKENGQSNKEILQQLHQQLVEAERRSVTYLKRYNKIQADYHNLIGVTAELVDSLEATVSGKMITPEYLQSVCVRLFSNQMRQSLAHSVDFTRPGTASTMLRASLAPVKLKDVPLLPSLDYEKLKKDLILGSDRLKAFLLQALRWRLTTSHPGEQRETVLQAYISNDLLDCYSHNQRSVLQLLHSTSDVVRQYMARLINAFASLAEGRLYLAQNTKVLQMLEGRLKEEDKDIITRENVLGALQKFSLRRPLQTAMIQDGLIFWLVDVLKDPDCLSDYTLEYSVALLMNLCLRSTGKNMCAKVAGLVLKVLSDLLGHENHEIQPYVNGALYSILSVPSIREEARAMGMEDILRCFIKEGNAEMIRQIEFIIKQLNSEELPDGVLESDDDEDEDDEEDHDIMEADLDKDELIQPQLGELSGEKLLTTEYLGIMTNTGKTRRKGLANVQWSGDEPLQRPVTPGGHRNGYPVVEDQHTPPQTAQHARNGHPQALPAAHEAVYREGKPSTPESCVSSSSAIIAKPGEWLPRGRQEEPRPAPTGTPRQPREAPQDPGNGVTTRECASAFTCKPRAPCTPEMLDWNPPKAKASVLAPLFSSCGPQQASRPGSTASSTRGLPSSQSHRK
# Variants of: B1
# Details: with armc9_human ARMC9, Q7Z3E5
row,Variant,effect of a mutation on the interaction
1,R368W,disrupting interaction strength
2,L375P,disrupting interaction strength
3,R1311C,with no effect
